US10800813 (Bicycle, dated 2020)
Numbered stars: 1 amine (or outer) side, 2 acyl side, 3 side chain; on linkers, the order of the positions; unused ones are H or OH. Bridge positions count the residues as written; N and C are the ends. Ends that are not written are not given here. TBMB = c1c(C[*:1])cc(C[*:3])cc1C[*:2]

molecular target: T1, biotinylated human plasma Kallikrein (human, UniProt P03952 20-638, biotinylated); test: phage binding assay
T1 construct: also called Biotinylated hPK
Description: Library transformant colonies, or selection output colonies, were picked and grown as individual cultures in 2TY broth containing selective antibiotic. The picked colonies were DNA-sequenced using a QIAgen PyroMark Q96 DNA sequencer to reveal the amino-acid substitution present in each clone, and were assayed for human plasma Kallikrein binding as follows. The phage-containing supernatant was harvested from the culture and phage were cyclised with tris bromomethyl benzene(TBMB) based on the methods of Heinis et al (Nature Chemical Biology vol. 5 pp 502-507 (2009)). The purified phage from this process were assayed for binding to biotinylated human plasma Kallikrein using a homogeneous plate-based binding assay; assay read-out measured on a BMG Labtech Pherastar FS plate reader. The quantitative binding data from duplicate assay samples was averaged (mean) and expressed as signal:background. […] The assay data was correlated with the peptide sequences.
A library was constructed where positions 1, 6, 7, 8, 9 &10 of 06-34-03 were fixed and positions 2, 3, 4 & 5 were randomised (see 'Randomisation of peptide domains—Library construction' in Methods above). Selections against human plasma Kallikrein were performed at a variety of stringencies (see 'Phage selections' in Methods above). All output sequences were identified and analysed for target binding (see 'Randomisation of peptide domains—Assay of binding of individual clones' in Methods above). Table 17 lists each unique sequence, its relative abundance in the selection output (frequency), and a rank number according to target binding strength.

T1 sequence (P03952 20-638 limits assumed): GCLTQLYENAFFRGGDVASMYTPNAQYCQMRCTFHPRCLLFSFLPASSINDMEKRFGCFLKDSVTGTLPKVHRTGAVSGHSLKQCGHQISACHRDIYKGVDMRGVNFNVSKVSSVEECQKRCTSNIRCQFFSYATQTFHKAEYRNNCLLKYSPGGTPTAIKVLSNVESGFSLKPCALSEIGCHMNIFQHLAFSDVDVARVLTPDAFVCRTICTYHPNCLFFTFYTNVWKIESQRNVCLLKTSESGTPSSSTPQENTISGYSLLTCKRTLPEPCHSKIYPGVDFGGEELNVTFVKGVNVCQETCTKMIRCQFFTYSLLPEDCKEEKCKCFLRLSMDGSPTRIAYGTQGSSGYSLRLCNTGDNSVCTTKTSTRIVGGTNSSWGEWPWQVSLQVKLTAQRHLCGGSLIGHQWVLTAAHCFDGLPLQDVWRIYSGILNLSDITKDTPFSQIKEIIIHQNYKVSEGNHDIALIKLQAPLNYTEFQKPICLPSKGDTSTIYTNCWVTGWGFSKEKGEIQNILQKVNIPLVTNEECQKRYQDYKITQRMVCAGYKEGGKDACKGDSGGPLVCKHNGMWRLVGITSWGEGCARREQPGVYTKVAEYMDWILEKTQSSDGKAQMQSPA

| Binder | Rank (by Kallikrein binding) |
| --- | --- |
| CSHRRWCTHQDLC (linker 1-7-13 via TBMB) [SEQ ID NO 113] | 41 |
| CSLFDHCTHQDLC (linker 1-7-13 via TBMB) [SEQ ID NO 112] | 40 |
| CSWPSRCTHQDLC (linker 1-7-13 via TBMB) [SEQ ID NO 74] | 2 |
| CSFPYKCTHQDLC (linker 1-7-13 via TBMB) [SEQ ID NO 94] | 22 |
| CSYPIRCTHQDLC (linker 1-7-13 via TBMB) [SEQ ID NO 90] | 18 |
| CSWWARCTHQDLC (linker 1-7-13 via TBMB) [SEQ ID NO 99] | 27 |
| CSFPYRCTHQDLC (linker 1-7-13 via TBMB) [SEQ ID NO 77] | 5 |
| CSWQARCTHQDLC (linker 1-7-13 via TBMB) [SEQ ID NO 114] | 42 |
| CSWHARCTHQDLC (linker 1-7-13 via TBMB) [SEQ ID NO 96] | 24 |
| CSFPFKCTHQDLC (linker 1-7-13 via TBMB) [SEQ ID NO 78] | 6 |
| CSHPFRCTHQDLC (linker 1-7-13 via TBMB) [SEQ ID NO 81] | 9 |
| CSFPIRCTHQDLC (linker 1-7-13 via TBMB) [SEQ ID NO 87] | 15 |
| CSWPFRCTHQDLC (linker 1-7-13 via TBMB) [SEQ ID NO 86] | 14 |
| CSYPFRCTHQDLC (linker 1-7-13 via TBMB) [SEQ ID NO 93] | 21 |
| CSWAARCTHQDLC (linker 1-7-13 via TBMB) [SEQ ID NO 79] | 7 |
| CSYPYRCTHQDLC (linker 1-7-13 via TBMB) [SEQ ID NO 98] | 26 |
| CSFPWRCTHQDLC (linker 1-7-13 via TBMB) [SEQ ID NO 95] | 23 |
| CSWLARCTHQDLC (linker 1-7-13 via TBMB) [SEQ ID NO 76] | 4 |
| CRFPFKCTHQDLC (linker 1-7-13 via TBMB) [SEQ ID NO 83] | 11 |
| CSWPYRCTHQDLC (linker 1-7-13 via TBMB) [SEQ ID NO 82] | 10 |
| CSHPYRCTHQDLC (linker 1-7-13 via TBMB) [SEQ ID NO 80] | 8 |
| CSWSARCTHQDLC (linker 1-7-13 via TBMB) [SEQ ID NO 91] | 19 |
